Reference: PMC8230641

Key:
Test in all cases: native gel or EMSA
[1] = target: BG505-NFL Env trimer (native flexible linker variant, C-terminal hexahistidine tag) (HIV-1 (BG505))
[2] = target: BG505-NtCC Env trimer (NFL variant with the N-terminal cysteine-containing coupling tag CAAC and (G4S)3 linker) (HIV-1 (BG505))
[3] = target: BG505-SOSIP Env trimer (BG505 SOSIP.664 sequence, mini-tPA signal sequence, C-terminal hexahistidine tag) (HIV-1 (BG505))
[4] = target: ConC-NFL Env trimer (stabilized HIV-1 clade C consensus, native flexible linker variant, with G473T) (HIV-1 clade C consensus)
[5] = target: ConC-NtCC Env trimer (stabilized HIV-1 clade C consensus NFL variant with the N-terminal coupling tag CAAC and (G4S)3 linker, with G473T) (HIV-1 clade C consensus)
[6] = target: ConC-SOSIP Env trimer (stabilized HIV-1 clade C consensus, ConCv5 KIKO, with G473T) (HIV-1 clade C consensus)

## BG505-NFL Env trimer (native flexible linker variant, C-terminal hexahistidine tag) (domain or fragment)
[1]
  stoichiometry N: 3

## BG505-NtCC Env trimer (NFL variant with the N-terminal cysteine-containing coupling tag CAAC and (G4S)3 linker) (domain or fragment)
[2]
  stoichiometry N: 3

## BG505-SOSIP Env trimer (BG505 SOSIP.664 sequence, mini-tPA signal sequence, C-terminal hexahistidine tag) (complex)
[3]
  stoichiometry N: 3

## ConC-NFL Env trimer (stabilized HIV-1 clade C consensus, native flexible linker variant, with G473T)
[4]
  stoichiometry N: 3

## ConC-NtCC Env trimer (stabilized HIV-1 clade C consensus NFL variant with the N-terminal coupling tag CAAC and (G4S)3 linker, with G473T)
[5]
  stoichiometry N: 3

## ConC-SOSIP Env trimer (stabilized HIV-1 clade C consensus, ConCv5 KIKO, with G473T) (complex)
[6]
  stoichiometry N: 3
